Earlier results, collected in article PMC8693730.
Like-named read-outs stand apart in the source and are kept apart here.

How the values were obtained:
RAP74 (Homo sapiens) [1] = biological target: RAP74 (Homo sapiens) (UniProt P35269)
RAP74 (Homo sapiens) [2] = biological target: RAP74 (Homo sapiens) (UniProt P35269); remark: listed apart in the source

Sequence of UniProt P35269 (P35269 2-517): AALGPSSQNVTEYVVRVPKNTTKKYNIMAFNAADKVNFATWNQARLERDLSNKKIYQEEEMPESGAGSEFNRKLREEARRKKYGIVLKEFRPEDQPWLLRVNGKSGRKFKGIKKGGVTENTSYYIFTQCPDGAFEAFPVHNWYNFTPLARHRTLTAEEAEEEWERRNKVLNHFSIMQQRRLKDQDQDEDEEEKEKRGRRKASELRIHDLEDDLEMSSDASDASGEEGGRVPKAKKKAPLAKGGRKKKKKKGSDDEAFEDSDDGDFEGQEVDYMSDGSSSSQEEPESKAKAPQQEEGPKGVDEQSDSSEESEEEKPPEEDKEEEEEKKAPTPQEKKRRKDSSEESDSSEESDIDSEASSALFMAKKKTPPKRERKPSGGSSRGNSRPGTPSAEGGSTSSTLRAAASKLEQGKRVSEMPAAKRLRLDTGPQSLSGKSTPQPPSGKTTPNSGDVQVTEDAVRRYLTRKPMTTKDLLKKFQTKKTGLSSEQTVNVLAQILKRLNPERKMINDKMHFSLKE

Kd (RAP74 (Homo sapiens) [1]): 0.702 mM
Kd (RAP74 (Homo sapiens) [2]): 1.75 mM
Substance: androgen receptor NTD (from UniProt P10275)
